We go through eleven sequences from the DeepSol protein solubility set.

A short description of this data set: soluble on expression in E. coli; label from the status in PepcDB or PDB records.
On to “MGSDKIHHHHHHMEFSPQQDEALQAVARWLQAGKPQLFRLFGYAGTGKTTLARYFAEHVDGQVQFAAFTGKAAQVLRSKGAVNARTIHSLIYRPKGEESVEDEVTGKTSMSPTFSLNRQSPISRAKLVVIDECSMVDEQLGRDLMSFGTPILVLGDPGQLPPISGGGFFTDHEPDFLLTEIHRQARDNPILRLALDVREGREFMRGDYGTAQVIGKEDVTQELVLKADQVLVGTNRTRRRYNQRLRELKGFNADYPQAGDKLVCLRNDPAKGLLNGSLWKVMTSSRETVKPGINLLVSPEEDDPDRGVAKIKLLKAAFEDPDADIPWQQKKRFDDFDYGYALTVHKAQGSQWNEIVLFDESWAFKETRQRWLYTAITRAAERLTIVR”, for which the “soluble on expression in E. coli” value is “not soluble”.

For “PGAKVRVFHLLPFRREDLVPEEVLASVRDYLRTTKEQGLTMRVAMHGGNTEGDFSVSTAQALKGLFANEGIPLEFDETCANRTSETLLGAVILDDNSTHFIKHLVAQ”, the “soluble on expression in E. coli” value is on record as “not soluble”.

Consider “MSLAHYKKFRLSTLAAVVGIVLAVGPENSYAEAPIQFNTRFLDVKDDASLDLSRFSRKGYIMPGSYHLQVLVNQSQIVQDNVITYSVDNNDPDNTYPCLSPELVSLLGLKPEIADKMIWINAGQCLQPDQLEGMETQTDLSQSTLTVIIPQAYLEYSDEEWDPPSRWDEGIPGVLFDYNVNSQWRHAEHDDGDEYDISGNGTVGANLGAWRLRADWQANYRHENDSEDKDNFGSSSEQNWDWNRYYAWRAIPQLRAQLTLGEGSLESDIFDGFNYVGGSLITDDQMLPPNLRGYAPDISGVARTNAKVTVTQRGRVIYESQVPAGPFRIQDINETVSGDLHVKIEEQSGQVQEYDVSTASIPFLTRPGQVRYKLAAGRPQDWDHNMEGGFFTSAEASWGIANGWSLYGGAIGEQDYQALALGLGRDLALLGAFSVDVTHSRATLPEGSAYGDGTIQGNSFRASYAKDFDDIDSRLTFAGYRFSEENYMTMDEFIDTHNDDNDRQRTGHDKEMYTLTYSQNFSAINVNAYINYTHRTYWNQPNQDSYNLTLSHYFDVGEVRGISLSVNGFRNEYDNERDDGVYVSLSIPWGNNRTLSYNGSFSDDNNSNQVGYYERIDDRNNYQINAGRADNGATLDGYYRYQASYADIDVSANYQEGDYTSGGLNIQGGATLTAKGGALHRTSVNGGSRLLVDVGDEANVPISGYSTPVYTNAFGKAVIVDVNDYYRNQVKIDITQLPEDAEAILSIAQATLTEGAIGYRRMEVLSGKKAMASIRLRDGGTPPFGAEVYNSRQQQLGIVGEDGSVYLIGINPGERLQVTWEGKTQCEATLPDPLPGDLFSGLLLPCIGDASSPEATQPEEKPLLQLHTQRRTSSTQPEALSSRYPTHEGGSHHHHHH”, for which the “soluble on expression in E. coli” value is listed as “soluble”.

Turning to “MSLSKMEEILVIGVNTRPVVESAFRLGYRVYSAGYYCTADFKHYTERRCILRERSGESCGRFHENFSQEKLLEAASDFIERADGIIPLTGAPPLPGEKVLGNSRVDHVEDKYRLYRRIRNSYPTPETHLISDPAEAMEIVAAGEKKYIAKPVSGAGGFGVTEFREGDGEFLLQEYIEGVPVSASVLSTGEDAITVLTSRQIIDRGVPGFEGQFVYAGNMTPGPSGEIEDLASDLILDLSLRGSNGVDLIMRDSELYVIEVNPRIQGTFECAEASLGINMVDAHIRACMGELIEKPDPVSYAVKRILYAPARCRVGEIKTMGVHDLPVPGTIIEEGEPLLTVLASHNSMEAAENLASNICSRVKKELHYLRCPPPRPQGVEGHHHHHH”, the “soluble on expression in E. coli” value is “not soluble”.

Turning to “MAHHHHHHMADATLLHHLIEVLPKAELHVHIEGTLSPELLFELAKRNGVQIPYKTVEEVRVAYNFTDLQSFLDLYYEGMSVLITEDDFEDLAYAYTRVMHESRVVHAEPFFDPQGHLCRGVTFRVLYDGLMRGFRRGEAEFGVSVMLIFSFLRHLSEEECLALVLDDMHPDNGQYIRELFVAKAFVAVGLDSSELGHPPEKFARLYRYCREELKVPFLVAHAGEEGPPEYMRDAMSMLKVDRIDHGVAARLDQALCKDLREKRIPLTVCPTSNVALKVFQDRATCGAVVMDLILTEGLCVTINSDDPAYFGGDIRESFRILAETGRLTPATLKQLVLNSFSSSFIADDSKRAYKERVEKVFKDVCGGTYE”, the “soluble on expression in E. coli” value is on record as “soluble”.

“MTNNSTKVCVLLATYNGTKWCLDQVKSILNQEDVNLEVFVSDDLSSDSTTDLLALLNDSRIHILASSYKFGSACQNFFRLVRDVDFSEYDYIAFADQDDLWNPNKLSYSIEQLNAHCADAFSSNVTAFWPDGRARLIVKDQPQREWDFLFESAGPGCTFVLTKKLACNLANFLHNNYEKTKGVALHDWFTYAFARSNSYSWWIDSQPTMMYRQHESNEFGVNSGVTAALSRFRKTSNGWYRNQVILIGDLVGAEDSWPIKRMRRFSLLDRMLLLFNVFAFRRSFRDRIALFFLLLLPQKKLEHHHHHH”: the “soluble on expression in E. coli” value is on record as “soluble”.

Regarding “MSRPLGFIGYEFGDDEMFVQQMIEKKSNAEQAKMLEQQKKMLECTETMPEESEPVPMKCLDFEEAFQSESVSKGYESPYKNISFLKEDAVTVNTMSHCPADDIAKLIRNIQNSVYTLGIEEARQCRRGKLLNVLKPTGSASPRYLQPTPPKNVAEETTGSQ”, the “soluble on expression in E. coli” value is on record as “not soluble”.

Consider “VGKMTPDFLGSLSTTLSWKNLSLHIATDMRFGGLVASYSNLYGTQAGWIKSSLKWRDPEHGGLSWTSQYGDSKGISYGDGVIPDGVFKNGTFATLVDGTKMDVSGMSYKQLVAEGKLEPTHAGTYHVNRAAWGQNTIFDTWVHELNYIALREITLSYRFPKSVASKFGAQGLGLSFSARNLGYLYNSLPNHLNPESVRGNTASEFRIRGYEPYTANYMMTINVDF”, for which the “soluble on expression in E. coli” value is given as “not soluble”.

For “GAGTLIKDNLKRDLITSLPFEISLKIFNYLQFEDIINSLGVSQNWNKIIRKSTSLWKKLLISENFVSPKGFNSLNLKLSQKYPKLSQQDRLRLSFLENIFILKNWYNPKFVPQRTTLRGHMTSVITCLQFEDNYVITGADDKMIRVYDSINKKFLLQLSGHDGGVWALKYAHGGILVSGSTDRTVRVWDIKKGCCTHVFEGHNSTVRCLDIVEYKNIKYIVTGSRDNTLHVWKLPKESSVPDHGEEHDYPLVFHTPEENPYFVGVLRGHMASVRTVSGHGNIVVSGSYDNTLIVWDVAQMKCLYILSGHTDRIYSTIYDHERKRCISASMDTTIRIWDLENGELMYTLQGHTALVGLLRLSDKFLVSAAADGSIRGWDANDYSRKFSYHHTNLSAITTFYVSDNILVSGSENQFNIYNLRSGKLVHANILKDADQIWSVNFKGKTLVAAVEKDGQSFLEILDFS”, the “soluble on expression in E. coli” value is recorded as “soluble”.

As for “MTESTSLDELFKDRYSQNDERYKKMSETGFEPVIVVHPWEPRRNNNYRNRGNFGGGRGGGYQHRDNSNRGGWVPRGGGQRGGYRGGWQDRGGHRGGGGWQDRGGQRQPYRGGDRRRQYND”, the “soluble on expression in E. coli” value was “soluble”.

In the case of “MLASKMRWEIQRPDQDKVKSLTEQLHITPLVASLLVKRGFDTAESARLFLHTKDADFYDPFEMKGMKEAADRIKQAISQQEKIMIYGDYDADGVTSTSVMLHTLQKLSAQVDFYIPDRFKEGYGPNEQAFRSIKERGFSLIITVDTGIAAVHEAKVAKELGLDVIITDHHEPGPELPDVRAIVHPKQPGCTYPFKELAGVGVAFKLAHALLGELPDELLDLAAIGTIADLVPLHDENRLIATLGLERLRRTNRLGLKELIKLSGGDIGEANEETVGFQLAPRLNAVGRIEQADPAVHLLMSEDSFEAEELAAEIDQLNKERQKMVSKMTDEAIEMVEQQGLDQTAIVVAKAGWNPGVVGIVASKLVDRFYRPAIVLGIDEEKGIAKGSARSIRGFNLFESLSECRDILPHFGGHPMAAGMTLKAEDVPDLRSRLNEIADNTLTEEDFIPVQEVDLVCGVEDITVESIAEMNMLSPFGMLNPKPHVLVENAVLEDVRKIGANKTHVKMTIRNESSQLDCVGFNKGELQEGIVPGSRISIVGEMSINEWNNRKKPQLMIKDAAVSEWQLFDLRGKRTWEDTVSALPSAKRAIVSFKEDSTTLLQTEDLRREVHVISSKDQAKAFDLDGAYIVLLDPPPSLDMLARLLEGKAPERIYFIFLNHEDHFLSTFPARDHFKWYYAFLLKRGAFDVKKHGSELAKHKGWSVETINFMTKVFFDLGFVKIENGVLSVVSGAKKRDLTDSQTYQAKQQLMELDQKLNYSSAEELKEWLNKLMKQDSEAYESTRR”, the “soluble on expression in E. coli” value is given as “not soluble”.
